This is an account of results in EP4541814A1.

This experiment deals with AAV9 viral particles (adeno-associated virus 9). Description: SPR (Biacore 8K+), biotinylated ligand on SA chip (4128 RU), AAV9 2E12 vp/ml. (In SPR one partner is held on a chip, and binding of the other changes the refractive index at the surface.)

The substance “CaptureSelect Biotin Anti-AAV9 Conjugate (ThermoFisher Scientific)” registered an AAV9 capacity, 2E12 vp/ml (RU) of 8860 RU.
